In patent US20260242478A1 (published 2026):

Assays:
Anti-PSMA Fab [1] = molecular target: T1, Anti-PSMA Fab (biotinylated (site not stated)); experiment: clonal phage ELISA on plate-captured biotinylated PSMA Fab, wells pre-incubated with PSMA antigen as competitor
T1 construct: Biotinylated PSMA Fab captured on neutravidin coated plates; also called 006 PSMA Fab

Anti-PSMA Fab [2] = molecular target: T1, Anti-PSMA Fab; experiment: clonal phage ELISA on plate-captured biotinylated PSMA Fab, blocking buffer alone
Procedure: (§1) Clonal phage were harvested as crude supernatants and screened via standard ELISAs. […] Prior to the addition of clonal phage. wells were incubated with blocking buffer and PSMA antigen or blocking buffer alone. Without washing or aspirating, clonal phage supernatants were then added to the wells and incubated for a short time. Wells were then washed followed by detection of bound phage using a horse radish conjugated anti-M13 antibody.

006 PSMA Fab [3] = molecular target: T2, 006 PSMA Fab; experiment: clonal phage ELISA; biotinylated PSMA Fab captured on neutravidin plate, wells pre-incubated with PSMA antigen as competitor; bound phage detected with anti-M13 HRP
T2 construct: In the phage ELISA the PSMA Fab was biotinylated and captured on neutravidin coated plates; also called Anti-PSMA Fab
Procedure: as §1

006 PSMA Fab [4] = molecular target: T2, 006 PSMA Fab; experiment: clonal phage ELISA; biotinylated PSMA Fab captured on neutravidin plate, blocking buffer alone; bound phage detected with anti-M13 HRP
Procedure: as §1

Anti-PSMA Fab [5] = molecular target: T3, Anti-PSMA Fab (biotinylated (site not stated)); experiment: clonal phage ELISA on captured biotinylated PSMA Fab pre-incubated with PSMA antigen as competitor, anti-M13 HRP detection
T3 construct: Biotinylated PSMA Fab captured on neutravidin plates in the phage ELISA; also called 006 PSMA Fab

Anti-PSMA Fab [6] = molecular target: T3, Anti-PSMA Fab; experiment: clonal phage ELISA on captured biotinylated PSMA Fab, anti-M13 HRP detection
Procedure: as §1

PSMA Fab [7] = molecular target: T4, PSMA Fab (biotinylated (site not stated)); experiment: clonal phage ELISA on captured PSMA Fab pre-incubated with PSMA antigen as competitor, anti-M13 HRP detection;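 also: crude clonal phage supernatants tested by ELISA, wells first treated with blocking buffer plus PSMA antigen, bound phage read out via HRP-linked anti-M13 antibody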
T4 construct: Biotinylated PSMA Fab captured on neutravidin plates for the clonal phage ELISA; also called Anti-PSMA Fab; 006 PSMA Fab

PSMA Fab [8] = molecular target: T4, PSMA Fab; experiment: clonal phage ELISA on biotinylated PSMA Fab captured on neutravidin, blocking buffer alone, anti-M13 HRP detection;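 also: clonal phage were tested as crude supernatants, and the signal reflects phage still bound to the wells after washing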
Procedure: as §1

Row | Binder | phage binding ELISA signal (Anti-PSMA Fab with PSMA) (Anti-PSMA Fab [1]) | Phage binding ELISA signal, Anti-PSMA Fab (Anti-PSMA Fab [2]) | Phage binding ELISA signal, Anti-PSMA Fab in presence of PSMA antigen (PSMA Fab [7]) | Phage binding ELISA signal, Anti-PSMA Fab (PSMA Fab [8]) | further results
1 | LVSWCTPPWMCEGV (tested as crude clonal phage supernatant) [Phage-3961] | 0.131 | 0.818 |  |  | 
2 | ILPRCEPYWMCTGL [Phage-3950] |  |  |  |  | Phage binding ELISA signal, Anti-PSMA Fab with PSMA antigen (006 PSMA Fab [3]): 0.0634; Phage binding ELISA signal, Anti-PSMA Fab (006 PSMA Fab [4]): 0.872
3 | FFQVCEPQWMCLGF (tested as crude clonal phage supernatant) [Phage-3954] | 0.0548 | 0.854 |  |  | 
4 | SYQLCKPEWMCHGW [Phage-3982] |  |  |  |  | Phage binding ELISA signal, Anti-PSMA Fab in presence of PSMA antigen (Anti-PSMA Fab [5]): 0.0692; Phage binding ELISA signal, Anti-PSMA Fab (Anti-PSMA Fab [6]): 0.715
5 | EAKWCTPQWMCGGF [Phage-3975] |  |  | 0.0703 | 0.756 | 
6 | VQTRCVPAWMCDGF [Phage-3971] |  |  | 0.0744 | 0.782 | 
7 | MATMCVPQWMCAGF (tested as crude clonal phage supernatant) [Phage-3965] | 0.141 | 0.814 |  |  | 
8 | TVRSCTPPWMCEGF [Phage-3951] |  |  |  |  | Phage binding ELISA signal, Anti-PSMA Fab with PSMA antigen (006 PSMA Fab [3]): 0.0856; Phage binding ELISA signal, Anti-PSMA Fab (006 PSMA Fab [4]): 0.871
9 | EGGYCVPTWMCSGF (tested as crude clonal phage supernatant) [Phage-3960] | 0.0786 | 0.822 |  |  | 
10 | MTDRCKPEWMCFGF [Phage-3989] |  |  |  |  | Phage binding ELISA signal, Anti-PSMA Fab in presence of PSMA antigen (Anti-PSMA Fab [5]): 0.142; Phage binding ELISA signal, Anti-PSMA Fab (Anti-PSMA Fab [6]): 0.677
11 | DVLMCKPEWMCLGY (tested as crude clonal phage supernatant) [Phage-3956] | 0.0628 | 0.837 |  |  | 
12 | HVQRCVPQWMCVGF [Phage-3987] |  |  |  |  | Phage binding ELISA signal, Anti-PSMA Fab in presence of PSMA antigen (Anti-PSMA Fab [5]): 0.119; Phage binding ELISA signal, Anti-PSMA Fab (Anti-PSMA Fab [6]): 0.686
13 | FDGWCVPAWMCYPF (tested as crude clonal phage supernatant) [Phage-3962] | 0.0796 | 0.816 |  |  | 
14 | VVVQCIPEWMCNGF [Phage-3981] |  |  |  |  | Phage binding ELISA signal, Anti-PSMA Fab in presence of PSMA antigen (Anti-PSMA Fab [5]): 0.0683; Phage binding ELISA signal, Anti-PSMA Fab (Anti-PSMA Fab [6]): 0.729
15 | ITRMCTPSWMCMSF (tested as crude clonal phage supernatant) [Phage-3964] | 0.078 | 0.814 |  |  | 
16 | VENLCRPSWMCEGF [Phage-3985] |  |  |  |  | Phage binding ELISA signal, Anti-PSMA Fab in presence of PSMA antigen (Anti-PSMA Fab [5]): 0.112; Phage binding ELISA signal, Anti-PSMA Fab (Anti-PSMA Fab [6]): 0.696
17 | AVHMCAPSWMCSGF [Phage-3952] |  |  |  |  | Phage binding ELISA signal, Anti-PSMA Fab with PSMA antigen (006 PSMA Fab [3]): 0.0825; Phage binding ELISA signal, Anti-PSMA Fab (006 PSMA Fab [4]): 0.87
18 | EIGACVPDWMCRGF [Phage-3968] |  |  | 0.0694 | 0.809 | 
19 | TAPWCQPRWMCDGF (tested as crude clonal phage supernatant) [Phage-3958] | 0.0701 | 0.828 |  |  | 
20 | NGPMCVPQWMCDGT [Phage-3986] |  |  |  |  | Phage binding ELISA signal, Anti-PSMA Fab in presence of PSMA antigen (Anti-PSMA Fab [5]): 0.0558; Phage binding ELISA signal, Anti-PSMA Fab (Anti-PSMA Fab [6]): 0.691
21 | SYMRCEPEWMCSGL [Phage-3970] |  |  | 0.121 | 0.786 | 
22 | PAQICMPAWMCHGF [Phage-3976] |  |  | 0.0646 | 0.754 | 

Row | Binder | phage binding ELISA signal (Anti-PSMA Fab with PSMA) (Anti-PSMA Fab [1]) | Phage binding ELISA signal, Anti-PSMA Fab (Anti-PSMA Fab [2]) | Phage binding ELISA signal, Anti-PSMA Fab in presence of PSMA antigen (PSMA Fab [7]) | Phage binding ELISA signal, Anti-PSMA Fab (PSMA Fab [8]) | further results
23 | LLIVCKPPWMCAGS [Phage-3990] |  |  |  |  | Phage binding ELISA signal, Anti-PSMA Fab in presence of PSMA antigen (Anti-PSMA Fab [5]): 0.0992; Phage binding ELISA signal, Anti-PSMA Fab (Anti-PSMA Fab [6]): 0.666
24 | DARMCIPMWMCQAF [Phage-3977] |  |  | 0.0713 | 0.742 | 
25 | YERVCVPSWMCNSL (tested as crude clonal phage supernatant) [Phage-3955] | 0.0845 | 0.838 |  |  | 
26 | SVMNCVPLRMCEGF [Phage-3991] |  |  |  |  | Phage binding ELISA signal, Anti-PSMA Fab in presence of PSMA antigen (Anti-PSMA Fab [5]): 0.0968; Phage binding ELISA signal, Anti-PSMA Fab (Anti-PSMA Fab [6]): 0.644
27 | EYRECVPDWMCSGF [Phage-3980] |  |  | 0.0722 | 0.731 | 
28 | ISAECRPPWMCIGF (tested as crude clonal phage supernatant) [Phage-3963] | 0.0626 | 0.815 |  |  | 
29 | QQVRCVPDWMCSGF [Phage-3974] |  |  | 0.0755 | 0.762 | 
30 | AEMLCVPPWMCKAF (tested as crude clonal phage supernatant) [Phage-3959] | 0.0615 | 0.823 |  |  | 
31 | GFRTCVPSWMCTGF [Phage-3978] |  |  | 0.0906 | 0.734 | 
32 | YERMCSPEWMCWDF [Phage-3983] |  |  |  |  | Phage binding ELISA signal, Anti-PSMA Fab in presence of PSMA antigen (Anti-PSMA Fab [5]): 0.0861; Phage binding ELISA signal, Anti-PSMA Fab (Anti-PSMA Fab [6]): 0.704
33 | IAVKCMPAWMCVGI [Phage-3993] |  |  |  |  | Phage binding ELISA signal, Anti-PSMA Fab in presence of PSMA antigen (Anti-PSMA Fab [5]): 0.0897; Phage binding ELISA signal, Anti-PSMA Fab (Anti-PSMA Fab [6]): 0.632
34 | GLPQCVPPWMCDGF (tested as crude clonal phage supernatant) [Phage-3953] | 0.056 | 0.864 |  |  | 
35 | GGVMCRPMWMCAGF [Phage-3967] |  |  | 0.0836 | 0.81 | 
36 | TIQWCEPLWMCRGF (tested as crude clonal phage supernatant) [Phage-3957] | 0.0643 | 0.835 |  |  | 
37 | GSVFCIPTWMCEQS (tested as crude clonal phage supernatant) [Phage-3966] | 0.07 | 0.813 |  |  | 
38 | STLLCTPEWMCFGM [Phage-3969] |  |  | 0.0553 | 0.789 | 
39 | STPYCVPDWMCAGF [Phage-3988] |  |  |  |  | Phage binding ELISA signal, Anti-PSMA Fab in presence of PSMA antigen (Anti-PSMA Fab [5]): 0.0729; Phage binding ELISA signal, Anti-PSMA Fab (Anti-PSMA Fab [6]): 0.683
40 | VFKMCVPMWMCQVS [Phage-3992] |  |  |  |  | Phage binding ELISA signal, Anti-PSMA Fab in presence of PSMA antigen (Anti-PSMA Fab [5]): 0.0687; Phage binding ELISA signal, Anti-PSMA Fab (Anti-PSMA Fab [6]): 0.635
41 | LSVECIPVWMCNGF [Phage-3979] |  |  | 0.0832 | 0.732 | 
42 | KHILCEPVWMCVGF [Phage-3984] |  |  |  |  | Phage binding ELISA signal, Anti-PSMA Fab in presence of PSMA antigen (Anti-PSMA Fab [5]): 0.0708; Phage binding ELISA signal, Anti-PSMA Fab (Anti-PSMA Fab [6]): 0.697
43 | DARLCTPLWMCTGF [Phage-3972] |  |  | 0.0622 | 0.781 | 
44 | QMSMCKPAWMCTGL [Phage-3973] |  |  | 0.0909 | 0.767 | 
